Several values for one entry are separate records, joined by “and”; a condition that tells them apart may be missing. Equal entries are not always repeated.

Series [1] deals with full-length Hermes transposase (with the mutations Q2E and K128G) (Musca domestica) (UniProt Q25442). The series can be described thus: cryo-EM structure; LE-LE transpososome: Hermes with 8 + LE-TIR + 30 DNA, 8:2 protein-to-DNA, 150 mM NaCl, 25 mM HEPES.Na pH 7.5, purified by SEC.
The target is the same in series [2]. The series can be described thus: cryo-EM structure; RE-RE transpososome: Hermes with 8 + RE-TIR + 30 DNA, 8:2 protein-to-DNA, 150 mM NaCl, 25 mM HEPES.Na pH 7.5, purified by SEC.
For series [3] the target is unchanged. The series can be described thus: SEC + other: mass photometry; purified Hermes transposase alone, dialysed against 25 mM HEPES.Na pH 7.5, 0.3 mM TCEP with 0.5, 0.25 or 0.15 M NaCl; Superose 6 SEC; mass photometry at 50, 65 and 30 nM; higher salt favours the octamer, lower salt the hexamer.
The target is the same in series [4]. Description: cryo-EM structure; LE-LE transpososome: Hermes with 8 + LE-TIR + 30 DNA, 8:2 protein-to-DNA, 150 mM NaCl, 25 mM HEPES.Na pH 7.5, purified by SEC. This is another data set of the same source.
Series [5] shares this target. The series can be described thus: mass photometry; Hermes (10 µM) mixed with 2.5, 5 or 10 µM left-end DNAs, dialysed to 150 mM NaCl, 25 mM HEPES.Na pH 7.5, 0.3 mM TCEP, diluted 50 and 100 times; composition by subtracting the mass of the hexamer or octamer.
The target in series [6] is T1, Hermes BED domain (Musca domestica, UniProt Q25442 1-78).
T1 sequence: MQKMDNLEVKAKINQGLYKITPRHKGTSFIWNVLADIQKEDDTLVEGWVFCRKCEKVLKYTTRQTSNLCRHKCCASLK
The series can be described thus: EMSA; one BED per DNA; Kd in Fig. 6c is 1.7 or 2.8 uM, assignment not resolvable from text; BED EMSA: 25 mM HEPES.Na pH 7.5, 150 mM NaCl, 0.3 mM TCEP, 1 uM DNA, 0.5 uM ran17, 0-10 uM BED, 1 h 4 C then 15 min RT; 15% PAGE 0.5X TBE; Hermes SEC at 150 mM. To be noted: protein: recombinant; tags: untagged; label: 5'-6FAM top strand (EMSA); blunt.

Series [7] has as its target T1, Hermes BED domain. The series can be described thus: EMSA; two BED per DNA, cooperative; 0.5 uM ran17 competitor; value assigned by the peer review file; BED EMSA: 25 mM HEPES.Na pH 7.5, 150 mM NaCl, 0.3 mM TCEP, 1 uM DNA, 0.5 uM ran17, 0-10 uM BED, 1 h 4 C then 15 min RT; 15% PAGE 0.5X TBE; Hermes SEC at 150 mM. Particulars: protein: recombinant; tags: untagged; label: 5'-6FAM top strand (EMSA, 10% of the DNA); blunt.

Take “full-length Hermes transposase (with the mutations Q2E and K128G) (from UniProt Q25442 1-612) (enzyme)”: the stoichiometry N in series [1] was 8; in series [2], 8; in series [3] it was 6 monomers and 8 monomers; in series [4] it was 6; in series [5] it was 6 and 8.

B1: LE11-27mut (dsDNA)
DNA 1: CAACAAGTGTTTTATTT
DNA 2: AAATAAAACACTTGTTG
Consider B1, for which the binding result in series [6] is “binds”.

B2: LE11-27 (dsDNA)
DNA 1: CAACAAGTGGCTTATTT
DNA 2: AAATAAGCCACTTGTTG
B2: in series [7], the Kd was found to be 2.5 ± 0.2 µM.
